Test results reported in patent publication US20110091994A1, “Methods for Screening Compounds for Treating and/or Preventing an Hepatitis C Virus Infection” (priority 2008, published 2011).

B1: EGFL7 (protein, UniProt Q9UHF1 24-273, looked up)
Epidermal growth factor-like …: YRPGRRVCAVRAHGDPVSESFVQRVYQPFLTTCDGHRACSTYRTIYRTAYRRSPGLAPARPRYACCPGWKRTSGLPGACGAAICQPPCRNGGSCVQPGRCRCPAGWRGDTCQSDVDECSARRGGCPQRCVNTAGSYWCQCWEGHSLSADGTLCVPKGGPPRVAPNPTGVDSAMKEEVQRLQSRVDLLEEKLQLVLAPLHSLASQALEHGLPDPGSLLVHSFQQLGRIDSLSEQISFLEEQLGSCSCKKDS
B2: FAM65A (protein, UniProt Q6ZS17 1-1223, looked up)
Rho family-interacting cell …: MMSLSVRPQRRLLSARVNRSQSFAGVLGSHERGPSLSFRSFPVFSPPGPPRKPPALSRVSRMFSVAHPAAKVPQPERLDLVYTALKRGLTAYLEVHQQEQEKLQGQIRESKRNSRLGFLYDLDKQVKSIERFLRRLEFHASKIDELYEAYCVQRRLRDGAYNMVRAYTTGSPGSREARDSLAEATRGHREYTESMCLLESELEAQLGEFHLRMKGLAGFARLCVGDQYEICMKYGRQRWKLRGRIEGSGKQVWDSEETIFLPLLTEFLSIKVTELKGLANHVVVGSVSCETKDLFAALPQVVAVDINDLGTIKLSLEVTWSPFDKDDQPSAASSVNKASTVTKRFSTYSQSPPDTPSLREQAFYNMLRRQEELENGTAWSLSSESSDDSSSPQLSGTARHSPAPRPLVQQPEPLPIQVAFRRPETPSSGPLDEEGAVAPVLANGHAPYSRTLSHISEASVDAALAEASVEAVGPESLAWGPSPPTHPAPTHGEHPSPVPPALDPGHSATSSTLGTTGSVPTSTDPAPSAHLDSVHKSTDSGPSELPGPTHTTTGSTYSAITTTHSAPSPLTHTTTGSTHKPIISTLTTTGPTLNIIGPVQTTTSPTHTMPSPTHTTASPTHTSTSPTHTPTSPTHKTSMSPPTTTSPTPSGMGLVQTATSPTHPTTSPTHPTTSPILINVSPSTSLELATLSSPSKHSDPTLPGTDSLPCSPPVSNSYTQADPMAPRTPHPSPAHSSRKPLTSPAPDPSESTVQSLSPTPSPPTPAPQHSDLCLAMAVQTPVPTAAGGSGDRSLEEALGALMAALDDYRGQFPELQGLEQEVTRLESLLMQRQGLTRSRASSLSITVEHALESFSFLNEDEDEDNDVPGDRPPSSPEAGAEDSIDSPSARPLSTGCPALDAALVRHLYHCSRLLLKLGTFGPLRCQEAWALERLLREARVLEAVCEFSRRWEIPASSAQEVVQFSASRPGFLTFWDQCTERLSCFLCPVERVLLTFCNQYGARLSLRQPGLAEAVCVKFLEDALGQKLPRRPQPGPGEQLTVFQFWSFVETLDSPTMEAYVTETAEEVLLVRNLNSDDQAVVLKALRLAPEGRLRRDGLRALSSLLVHGNNKVMAAVSTQLRSLSLGPTFRERALLCFLDQLEDEDVQTRVAGCLALGCIKAPEGIEPLVYLCQTDTEAVREAARQSLQQCGEEGQSAHRRLEESLDALPRIFGPGSMASTAF
B3: DLAT (protein, UniProt P10515 87-647, looked up)
Dihydrolipoyllysine-residue …: SLPPHQKVPLPSLSPTMQAGTIARWEKKEGDKINEGDLIAEVETDKATVGFESLEECYMAKILVAEGTRDVPIGAIICITVGKPEDIEAFKNYTLDSSAAPTPQAAPAPTPAATASPPTPSAQAPGSSYPPHMQVLLPALSPTMTMGTVQRWEKKVGEKLSEGDLLAEIETDKATIGFEVQEEGYLAKILVPEGTRDVPLGTPLCIIVEKEADISAFADYRPTEVTDLKPQVPPPTPPPVAAVPPTPQPLAPTPSAPCPATPAGPKGRVFVSPLAKKLAVEKGIDLTQVKGTGPDGRITKKDIDSFVPSKVAPAPAAVVPPTGPGMAPVPTGVFTDIPISNIRRVIAQRLMQSKQTIPHYYLSIDVNMGEVLLVRKELNKILEGRSKISVNDFIIKASALACLKVPEANSSWMDTVIRQNHVVDVSVAVSTPAGLITPIVFNAHIKGVETIANDVVSLATKAREGKLQPHEFQGGTFTISNLGMFGIKNFSAIINPPQACILAIGASEDKLVPADNEKGFDVASMMSVTLSCDHRVVDGAVGAQWLAEFRKYLEKPITMLL
B4: EEF1A1 (protein, UniProt P68104 2-462, looked up)
Elongation factor 1-alpha 1: GKEKTHINIVVIGHVDSGKSTTTGHLIYKCGGIDKRTIEKFEKEAAEMGKGSFKYAWVLDKLKAERERGITIDISLWKFETSKYYVTIIDAPGHRDFIKNMITGTSQADCAVLIVAAGVGEFEAGISKNGQTREHALLAYTLGVKQLIVGVNKMDSTEPPYSQKRYEEIVKEVSTYIKKIGYNPDTVAFVPISGWNGDNMLEPSANMPWFKGWKVTRKDGNASGTTLLEALDCILPPTRPTDKPLRLPLQDVYKIGGIGTVPVGRVETGVLKPGMVVTFAPVNVTTEVKSVEMHHEALSEALPGDNVGFNVKNVSVKDVRRGNVAGDSKNDPPMEAAGFTAQVIILNHPGQISAGYAPVLDCHTAHIACKFAELKEKIDRRSGKKLEDGPKFLKSGDAAIVDMVPGKPMCVESFSDYPPLGRFAVRDMRQTVAVGVIKAVDKKAAGAGKVTKSAQKAQKAK
B5: DDX3Y (protein, UniProt O15523 2-660, looked up)
ATP-dependent RNA helicase …: SHVVVKNDPELDQQLANLDLNSEKQSGGASTASKGRYIPPHLRNREASKGFHDKDSSGWSCSKDKDAYSSFGSRDSRGKPGYFSERGSGSRGRFDDRGRSDYDGIGNRERPGFGRFERSGHSRWCDKSVEDDWSKPLPPSERLEQELFSGGNTGINFEKYDDIPVEATGSNCPPHIENFSDIDMGEIIMGNIELTRYTRPTPVQKHAIPIIKGKRDLMACAQTGSGKTAAFLLPILSQIYTDGPGEALKAVKENGRYGRRKQYPISLVLAPTRELAVQIYEEARKFSYRSRVRPCVVYGGADIGQQIRDLERGCHLLVATPGRLVDMMERGKIGLDFCKYLVLDEADRMLDMGFEPQIRRIVEQDTMPPKGVRHTMMFSATFPKEIQMLARDFLDEYIFLAVGRVGSTSENITQKVVWVEDLDKRSFLLDILGATGSDSLTLVFVETKKGADSLEDFLYHEGYACTSIHGDRSQRDREEALHQFRSGKSPILVATAVAARGLDISNVRHVINFDLPSDIEEYVHRIGRTGRVGNLGLATSFFNEKNMNITKDLLDLLVEAKQEVPSWLENMAYEHHYKGGSRGRSKSNRFSGGFGARDYRQSSGSSSSGFGASRGSSSRSGGGGYGNSRGFGGGGYGGFYNSDGYGGNYNSQGVDWWGN
B6: DDX3X (protein, UniProt O00571 2-662, looked up)
ATP-dependent RNA helicase …: SHVAVENALGLDQQFAGLDLNSSDNQSGGSTASKGRYIPPHLRNREATKGFYDKDSSGWSSSKDKDAYSSFGSRSDSRGKSSFFSDRGSGSRGRFDDRGRSDYDGIGSRGDRSGFGKFERGGNSRWCDKSDEDDWSKPLPPSERLEQELFSGGNTGINFEKYDDIPVEATGNNCPPHIESFSDVEMGEIIMGNIELTRYTRPTPVQKHAIPIIKEKRDLMACAQTGSGKTAAFLLPILSQIYSDGPGEALRAMKENGRYGRRKQYPISLVLAPTRELAVQIYEEARKFSYRSRVRPCVVYGGADIGQQIRDLERGCHLLVATPGRLVDMMERGKIGLDFCKYLVLDEADRMLDMGFEPQIRRIVEQDTMPPKGVRHTMMFSATFPKEIQMLARDFLDEYIFLAVGRVGSTSENITQKVVWVEESDKRSFLLDLLNATGKDSLTLVFVETKKGADSLEDFLYHEGYACTSIHGDRSQRDREEALHQFRSGKSPILVATAVAARGLDISNVKHVINFDLPSDIEEYVHRIGRTGRVGNLGLATSFFNERNINITKDLLDLLVEAKQEVPSWLENMAYEHHYKGSSRGRSKSSRFSGGFGARDYRQSSGASSSSFSSSRASSSRSGGGGHGSSRGFGGGGYGGFYNSDGYGGNYNSQGVDWWGN
B7: NAPL1L2 (protein, UniProt Q9ULW6 1-460, looked up)
Nucleosome assembly protein …: MAESENRKELSESSQEEAGNQIMVEGLGEHLERGEDAAAGLGDDGKCGEEAAAGLGEEGENGEDTAAGSGEDGKKGGDTDEDSEADRPKGLIGYVLDTDFVESLPVKVKYRVLALKKLQTRAANLESKFLREFHDIERKFAEMYQPLLEKRRQIINAIYEPTEEECEYKSDSEDCDDEEMCHEEMYGNEEGMVHEYVDEDDGYEDYYYDYAVEEEEEEEEEDDIEATGEENKEEEDPKGIPDFWLTVLKNVDTLTPLIKKYDEPILKLLTDIKVKLSDPGEPLSFTLEFHFKPNEYFKNELLTKTYVLKSKLAYYDPHPYRGTAIEYSTGCEIDWNEGKNVTLKTIKKKQKHRIWGTIRTVTEDFPKDSFFNFFSPHGITSNGRDGNDDFLLGHNLRTYIIPRSVLFFSGDALESQQEGVVREVNDAIYDKIIYDNWMAAIEEVKACCKNLEALVEDIDR
B8: BIN1 (protein, UniProt O00499 2-593, looked up)
Myc box-dependent-interacting …: AEMGSKGVTAGKIASNVQKKLTRAQEKVLQKLGKADETKDEQFEQCVQNFNKQLTEGTRLQKDLRTYLASVKAMHEASKKLNECLQEVYEPDWPGRDEANKIAENNDLLWMDYHQKLVDQALLTMDTYLGQFPDIKSRIAKRGRKLVDYDSARHHYESLQTAKKKDEAKIAKPVSLLEKAAPQWCQGKLQAHLVAQTNLLRNQAEEELIKAQKVFEEMNVDLQEELPSLWNSRVGFYVNTFQSIAGLEENFHKEMSKLNQNLNDVLVGLEKQHGSNTFTVKAQPSDNAPAKGNKSPSPPDGSPAATPEIRVNHEPEPAGGATPGATLPKSPSQLRKGPPVPPPPKHTPSKEVKQEQILSLFEDTFVPEISVTTPSQFEAPGPFSEQASLLDLDFDPLPPVTSPVKAPTPSGQSIPWDLWEPTESPAGSLPSGEPSAAEGTFAVSWPSQTAEPGPAQPAEASEVAGGTQPAAGAQEPGETAASEAASSSLPAVVVETFPATVNGTVEGGSGAGRLDLPPGFMFKVQAQHDYTATDTDELQLKAGDVVLVIPFQNPEEQDEGWLMGVKESDWNQHKELEKCRGVFPENFTERVP
B9: UBASH3A (protein, UniProt P57075 1-661, looked up)
Ubiquitin-associated and SH3 …: MAAGETQLYAKVSNKLKSRSSPSLLEPLLAMGFPVHTALKALAATGRKTAEEALAWLHDHCNDPSLDDPIPQEYALFLCPTGPLLEKLQEFWRESKRQCAKNRAHEVFPHVTLCDFFTCEDQKVECLYEALKRAGDRLLGSFPTAVPLALHSSISYLGFFVSGSPADVIREFAMTFATEASLLAGTSVSRFWIFSQVPGHGPNLRLSNLTRASFVSHYILQKYCSVKPCTKQLHLTLAHKFYPHHQRTLEQLARAIPLGHSCQWTAALYSRDMRFVHYQTLRALFQYKPQNVDELTLSPGDYIFVDPTQQDEASEGWVIGISQRTGCRGFLPENYTDRASESDTWVKHRMYTFSLATDLNSRKDGEASSRCSGEFLPQTARSLSSLQALQATVARKSVLVVRHGERVDQIFGKAWLQQCSTPDGKYYRPDLNFPCSLPRRSRGIKDFENDPPLSSCGIFQSRIAGDALLDSGIRISSVFASPALRCVQTAKLILEELKLEKKIKIRVEPGIFEWTKWEAGKTTPTLMSLEELKEANFNIDTDYRPAFPLSALMPAESYQEYMDRCTASMVQIVNTCPQDTGVILIVSHGSTLDSCTRPLLGLPPRECGDFAQLVRKIPSLGMCFCEENKEEGKWELVNPPVKTLTHGANAAFNWRNWISGN
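Note: yeast two-hybrid screens using HCV genotype 1b proteins fused to Gal4-DB as baits against prey cDNA libraries from human spleen and foetal brain, IMAP1 via transformation and IMAP2 via mating.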

The molecules below were run on HCV ORFs (Gal4-DB fusions). Conditions: human protein listed by gene symbol; the value names the HCV protein it interacts with.
Type: binding, HCV genotype 1b, isolate con1
In the case of B1, the “Interaction with viral protein” value is reported as “CORE”. With B2 the “Interaction with viral protein” value was “NS3”. B3 was tested, and the “Interaction with viral protein” value was “NS3”. With B4 the “Interaction with viral protein” value was “NS3”. In the case of B5, the “Interaction with viral protein” value is reported as “CORE”.

What follows are molecules tested against T1, HCV ORFs (Gal4-DB fusions) (Hepatitis C virus genotype 1b, UniProt Q9WMX2). Conditions: HCV protein CORE as bait; human protein as prey.
T1 construct: expressed in transfected cells; host or cells: Saccharomyces cerevisiae MAV203 (IMAP1) / AH109 (IMAP2)
Type: binding, HCV genotype 1b, isolate con1
With B6 the “IMAP Y2H IMAP2 (number of IST)” value was 1. For B1, the “IMAP Y2H IMAP2 (number of IST)” value was 1. In the case of B5, the “IMAP Y2H IMAP2 (number of IST)” value is reported as 3.

Same assay, conditions: HCV protein NS3 as bait; human protein as prey
In the case of B2, the “IMAP Y2H IMAP2 (number of IST)” value is reported as 1. For B7, the “IMAP Y2H IMAP2 (number of IST)” value was 1. In the case of B3, the “IMAP Y2H IMAP2 (number of IST)” value is reported as 8. With B4 the “IMAP Y2H IMAP2 (number of IST)” value was 1.

Same assay, conditions: HCV protein NS5A as bait; human protein as prey
B8 was tested, and the “IMAP Y2H IMAP1 (number of IST)” value was 16 and the “IMAP Y2H IMAP2 (number of IST)” value was 14. B9 was tested, and the “IMAP Y2H IMAP2 (number of IST)” value was 1.
